The source of these data is paper PMC11109380.

The target of experiment [1] is human CD3ε Y50E-FLAG expressed in JK εKO cells (human). The experiment is described as follows: proximity ligation; in situ PLA (Duolink) with goat anti-CD3ε and mouse anti-LCK in JK εKO cells expressing hCD3ε variants; unstimulated or stimulated with 5 μg/ml anti-CD3ε (OKT3) for 5 min at 37°C; dots per cell normalised to the stimulated WT.
Experiment [2] has as its target human CD3ε cytoplasmic tail fused to GST, Y50E (human). The experiment is described as follows: pull-down; GST-CD3ε cytoplasmic tail variants on glutathione sepharose beads, incubated with Jurkat T cell lysate (lysis buffer with 0.3% Brij96V, 20 mM Tris-HCl pH 8, 137 mM NaCl) overnight at 4°C; immunoblot, signals normalised to GST. A general note: In western blotting, separated proteins are transferred to a membrane and probed.

The target of experiment [3] is human CD3ε cytoplasmic tail fused to GST, Y39/50E (human). Described as above.

For “Src family kinase LCK (from UniProt P06239 1-509) (enzyme)”, the reduction of TCR-LCK proximity compared to WT in experiment [1] came to 60%. Further, the residual binding in experiment [1] is less than 30%. Further, the reduction of binding compared to CD3ε WT in experiment [2] and in experiment [3] was 80% in each case.
